Here are results for two molecules from patent US20180250426A1 (GEORGIA STATE UNIVERSITY RESEARCH FOUNDATION, published 2018).

Experiment [1] has as its target T1, GRPR (GRP receptor) (UniProt P30550 1-384, limits assumed).
T1 construct: whole, on cells; also called gastrin release peptide receptor
The experiment can be described thus: confocal immunofluorescence with a CD2 antibody and Alexa Fluor 488 on GRPR-high PC-3 and DU145 cells at 37 °C; GRPR-low H441 cells as control. The procedure: (§1) In the second day, fresh medium was changed. Contrast agents were incubated with cells at different time point at 37° C. […] After cells were rinsed in PBS for three times, 0.2% Triton X-100 was added to permeablize cells for 10 minutes. […] After three time washes, CD2 antibody was used as primary antibody.

Another experiment concerns the target T2, HER2 (human, UniProt P04626 23-1255).
T2 construct: whole, on cells; also called cell surface HER2
The experiment can be described thus: immunofluorescence staining of AU565 cells (HER2 high) with PAbPGCA1. The source says:
We used two cancer cell lines for the binding analyses. AU565 is derived from breast carcinoma. EMT6 is a mouse mammary tumor cell line. AU565 cells express very high levels of HER2. The EMT is regarded as a HER2 negative cell line.

The target in experiment [2] is T1, GRPR (GRP receptor). The experiment can be described thus: confocal immunofluorescence with a CD2 antibody and Alexa Fluor 488 on GRPR-high PC-3 and DU145 cells; CA1-CD2 without the bombesin sequence as control. The procedure:
as §1

T1 sequence (P30550 whole entry): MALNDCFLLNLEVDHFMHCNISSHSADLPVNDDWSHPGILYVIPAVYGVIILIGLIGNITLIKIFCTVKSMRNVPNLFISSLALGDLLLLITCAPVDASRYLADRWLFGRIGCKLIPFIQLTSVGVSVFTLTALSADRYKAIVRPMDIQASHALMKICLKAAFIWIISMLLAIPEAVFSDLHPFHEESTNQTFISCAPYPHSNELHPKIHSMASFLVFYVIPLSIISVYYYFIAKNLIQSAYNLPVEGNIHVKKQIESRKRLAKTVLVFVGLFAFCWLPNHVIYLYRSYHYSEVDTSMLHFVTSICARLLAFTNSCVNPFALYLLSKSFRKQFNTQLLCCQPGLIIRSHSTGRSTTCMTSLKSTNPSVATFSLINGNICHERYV

B1: CA1.CD2-52I-Bom (designed binder)
chain: RDSGTVWGALGHGIELNIPNFQMTDDIDEVRWERGSTLVAEFKRKMKPFLKSGGSGGGNQWAVGHLMGGSGGGAFEIDANGDLDIKNLTRDDSGTYNVTVYSTNGTRILNKALDLRILE
notes: also called CA1.Bom
Consider B1, for which, in the experiment with GRPR (GRP receptor) [1], the binding result is on record as “binds”.

B2: CA1.CD2 (designed binder)
chain: RDSGTVWGALGHGIELNIPNFQMTDDIDEVRWERGSTLVAEFKRKMKPFLKSGAFEIDANGDLDIKNLTRDDSGTYNVTVYSTNGTRILNKALDLRILE
notes: domain: domain 1; 12 kDa, expressed in E. coli; in most assays loaded with Gd3+; also called Gd-CA1.CD2
With B2, the binding result with HER2 and with GRPR (GRP receptor) [2] was “no binding” throughout.
